Results: PMC10557622 (bioRxiv, 2023)
Each block holds one binder with its values, some of them ahead of it.

What was measured:
CENP-A/H4 = CENP-A/H4 (UniProt P49450;P62805); assay: BLI
[1] = biological target: 6xHis-MBP-CENP-C 1-600-SpyCatcher (UniProt Q03188 1-600); assay: BLI
6xHis-MBP-CENP-C 1-600-SpyCatcher, sequence (Q03188 1-600): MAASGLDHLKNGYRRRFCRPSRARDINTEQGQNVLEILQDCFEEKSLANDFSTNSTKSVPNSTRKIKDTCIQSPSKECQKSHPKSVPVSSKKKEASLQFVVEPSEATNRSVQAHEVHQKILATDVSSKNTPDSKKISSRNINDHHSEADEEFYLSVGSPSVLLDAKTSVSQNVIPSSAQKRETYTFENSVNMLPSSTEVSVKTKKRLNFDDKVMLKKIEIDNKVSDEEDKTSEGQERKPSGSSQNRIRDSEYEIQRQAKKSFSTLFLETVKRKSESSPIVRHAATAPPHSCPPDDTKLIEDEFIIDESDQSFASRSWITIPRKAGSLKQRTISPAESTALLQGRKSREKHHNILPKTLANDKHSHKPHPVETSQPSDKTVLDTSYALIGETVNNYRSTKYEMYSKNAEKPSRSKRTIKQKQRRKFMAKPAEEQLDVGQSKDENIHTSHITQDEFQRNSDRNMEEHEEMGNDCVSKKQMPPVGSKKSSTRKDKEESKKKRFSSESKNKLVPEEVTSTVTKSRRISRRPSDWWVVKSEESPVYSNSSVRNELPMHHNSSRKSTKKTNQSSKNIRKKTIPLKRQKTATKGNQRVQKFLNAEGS

Kd (CENP-A/H4): 290 nM
B1: purified BANF1 (natural protein)
chain: MTTSQKHRDFVAEPMGEKPVGSLAGIGEVLGKKLEERGFDKAYVVLGQFLVLKKDEDLFREWLKDTCGANAKQSRDCFGCLREWCDAFL

Kd (CENP-A/H4): 137 nM
Kd [1]: 404 nM
B2: recombinant Human EMD protein with N-terminal His-tag (natural protein)
chain: MDNYADLSDTELTTLLRRYNIPHGPVVGSTRRLYEKKIFEYETQRRRLSPPSSSAASSYSFSDLNSTRGDADMYDLPKKEDALLYQSKGYNDDYYEESYFTTRTYGEPESAGPSRAVRQSVTSFPDADAFHHQVHDDDLLSSSEEECKDRERPMYGRDSAYQSITHYRPVSASRSSLDLSYYPTSSSTSFMSSSSSSSSWLTRRAIRPENRAPGAGLGQDRQVPLWGQLLLFLVFVIVLFFIYHFMQAEEGNPF
